In PMC10333884, “Large‐scale phosphomimetic screening identifies phospho‐modulated motif‐based protein interactions” (Molecular Systems Biology, 2023):
Several values for one entry are separate records, joined by “and”; a condition that tells them apart may be missing. Equal values may be shown once. One block for each substance: values may come before it.

Columns and labels:
GGA1 VHS domain (human) = GGA1 VHS domain (human) (UniProt Q9UJY5); experiment: ITC; iTC200; peptide titrated against the protein domain in approximately 10-fold excess, 16 injections; 50 mM sodium phosphate buffer pH 7.4, 1 mM DTT; constants of single runs and their average
GGA1 VHS domain (human), sequence (Q9UJY5 17-147): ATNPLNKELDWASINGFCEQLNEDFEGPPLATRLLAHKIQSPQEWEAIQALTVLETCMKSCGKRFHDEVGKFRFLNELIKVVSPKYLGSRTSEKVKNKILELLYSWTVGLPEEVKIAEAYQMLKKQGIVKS

KPNA4 ARM ARM domain [1] = target: KPNA4 ARM ARM domain (UniProt O00629); experiment: FP displacement, minor-pocket FITC probe; conditions: reference: unphosphorylated peptide
KPNA4 ARM ARM domain [2] = target: KPNA4 ARM ARM domain (UniProt O00629); experiment: FP displacement, major-pocket FITC probe; conditions: reference: unphosphorylated peptide
GABARAPL2 (human) [3] = target: GABARAPL2 (human) (UniProt P60520); experiment: fluorescence polarisation; displacement of a FITC-labelled probe peptide (5 nM in the measurement) from the protein domain (1-2 fold over the probe's KD) by a dilution series of unlabelled peptide; room temperature; 50 mM sodium phosphate pH 7.4; KD calculated from the displacement curve; for KPNA4 ARM one probe for each pocket
GABARAPL2 (human), sequence (P60520 whole entry, the tested form may be a part): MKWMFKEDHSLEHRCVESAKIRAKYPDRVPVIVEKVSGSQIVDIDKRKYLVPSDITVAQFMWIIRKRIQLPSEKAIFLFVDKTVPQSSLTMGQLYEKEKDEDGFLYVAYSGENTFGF

[4] = target: Clathrin N-terminal domain (NTD) (human) (UniProt Q00610); experiment: as above
Clathrin N-terminal domain (NTD) (human), sequence (Q00610 1-364): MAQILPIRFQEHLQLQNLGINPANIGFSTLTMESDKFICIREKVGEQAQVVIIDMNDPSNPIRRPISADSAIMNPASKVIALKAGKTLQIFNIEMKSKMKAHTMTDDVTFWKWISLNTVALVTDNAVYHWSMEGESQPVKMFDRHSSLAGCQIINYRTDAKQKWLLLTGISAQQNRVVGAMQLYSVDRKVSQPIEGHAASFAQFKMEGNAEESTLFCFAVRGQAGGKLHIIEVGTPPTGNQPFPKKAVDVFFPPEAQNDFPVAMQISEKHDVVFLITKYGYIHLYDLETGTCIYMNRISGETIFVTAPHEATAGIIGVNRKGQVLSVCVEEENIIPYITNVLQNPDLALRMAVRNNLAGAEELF

[5] = target: Clathrin N-terminal domain (NTD) (human) (UniProt Q00610); experiment: ITC; peptide titrated against protein domain in about 10-fold excess, 16 injections; 50 mM sodium phosphate pH 7.4, 1 mM DTT
[6] = target: Clathrin N-terminal domain (NTD) (human) (UniProt Q00610); experiment: ITC; iTC200; peptide titrated against the protein domain in approximately 10-fold excess, 16 injections; 50 mM sodium phosphate buffer pH 7.4, 1 mM DTT; constants of single runs and their average
MAP1LC3A (human) = experiment: fluorescence polarisation; displacement of a FITC-labelled probe peptide (5 nM in the measurement) from the protein domain (1-2 fold over the probe's KD) by a dilution series of unlabelled peptide; room temperature; 50 mM sodium phosphate pH 7.4; KD calculated from the displacement curve; for KPNA4 ARM one probe for each pocket
MAP1LC3B (human) = MAP1LC3B (human) (UniProt Q9GZQ8); experiment: as above
GABARAPL2 (human) [7] = target: GABARAPL2 (human) (UniProt P60520); experiment: fluorescence polarisation
[8] = target: Clathrin N-terminal domain (NTD) (human) (UniProt Q00610); experiment: fluorescence polarisation
14‐3‐3 theta = 14‐3‐3 theta (UniProt P27348); experiment: FP displacement of FITC probe peptide; conditions: reference: unphosphorylated peptide; sites S375
[9] = target: Clathrin N-terminal domain (NTD) (human) (UniProt Q00610); experiment: fluorescence polarisation; displacement of a FITC-labelled probe peptide (5 nM in the measurement) from the protein domain (1-2 fold over the probe's KD) by a dilution series of unlabelled peptide; room temperature; 50 mM sodium phosphate pH 7.4; KD calculated from the displacement curve; for KPNA4 ARM one probe for each pocket; remark: listed apart in the source
MAP1LC3B ATG8 (human) = experiment: ITC; iTC200; peptide titrated against the protein domain in approximately 10-fold excess, 16 injections; 50 mM sodium phosphate buffer pH 7.4, 1 mM DTT; constants of single runs and their average

stoichiometry N (GGA1 VHS domain (human)): 0.8
Substance: RNF11 6-21 peptide, wild-type (from UniProt Q9Y3C5 6-21)

KD (KPNA4 ARM ARM domain [1]; sites S125): stronger; reference 68 ± 4 | KD (KPNA4 ARM ARM domain [2]; sites S125): same; reference 0.15 ± 0.01
Substance: RANBP3 114-129 (from UniProt Q9H6Z4) pS125 peptide (p+6)

stoichiometry N (GGA1 VHS domain (human)): 0.97 and 0.905
Substance: RNF11 6-21 peptide, phosphomimetic (from UniProt Q9Y3C5 6-21)

Kd (GABARAPL2 (human) [3]): 2.8 µM
Substance: TBK1_(164–179), phosphorylated (pS) (from UniProt Q9UHD2 164-179) (peptide)

Kd [4]: < 3 µM | Kd [5]: 5 µM
Substance: pS839 HURP_(832–846) (from UniProt Q15398 832-846) (peptide)

stoichiometry N [6]: 0.552 and 0.557 and 0.458
Substance: HURP 832-846 peptide, phosphomimetic (S839 to glutamate) (from UniProt Q15398 832-846)

Kd (MAP1LC3A (human)): 3.1 µM | Kd (MAP1LC3B (human)): 4.6 µM | Kd (GABARAPL2 (human) [7]): 1.8 µM
Substance: ATG4C_(444–458), phosphomimetic (E) (from UniProt Q96DT6 444-458) (peptide)

Kd [8]: 23 µM
Substance: HURP_(832–846), phosphomimetic (E) (from UniProt Q15398 832-846) (peptide)

Kd (MAP1LC3A (human)): 5.2 µM | Kd (MAP1LC3B (human)): 7.1 µM | Kd (GABARAPL2 (human) [7]): 0.8 µM
Substance: ATG4C_(444–458), wild‐type (from UniProt Q96DT6 444-458) (peptide)

binding against the reference (14‐3‐3 theta): gained
Substance: TOM1 366-382 (from UniProt O60784) pS375 peptide

Kd [4]: 134 µM | Kd [9]: 150 µM | Kd [5]: 250 µM
Substance: HURP_(832–846), wild‐type (from UniProt Q15398 832-846) (peptide)

stoichiometry N (MAP1LC3B ATG8 (human)): 1.09 and 1.17 and 0.932
Substance: TBK1 164-179 peptide, phosphorylated (from UniProt Q9UHD2 164-179)

Kd (MAP1LC3A (human)): 78 µM | Kd (MAP1LC3B (human)): 225 µM
Substance: TPD52L2_(91–106), phosphomimetic (E) (from UniProt O43399 91-106) (peptide)

KD (KPNA4 ARM ARM domain [1]; sites S266): weaker; reference 14.0 ± 0.7 | KD (KPNA4 ARM ARM domain [2]; sites S266): weaker; reference 0.24 ± 0.04
Substance: SQSTM1 258-272 (from UniProt Q13501) phosphorylated peptide

stoichiometry N (GGA1 VHS domain (human)): 0.722 and 0.731
Substance: RNF11 6-21 peptide, phosphorylated (from UniProt Q9Y3C5 6-21)

Kd (GABARAPL2 (human) [3]): 12.4 µM | Kd (MAP1LC3B (human)): 2.1 µM
Substance: TBK1_(164–179), phosphomimetic (E) (from UniProt Q9UHD2 164-179) (peptide)

Kd (GABARAPL2 (human) [3]): 19 µM | Kd (MAP1LC3B (human)): 10.5 µM
Substance: TBK1_(164–179), wild‐type (from UniProt Q9UHD2 164-179) (peptide)
